{"source": "patent US20110274721A1", "molecular_target": "gp140ΔCFI B(C-HR2) ext 2F5 (HIV-1 strain HXB2 (clade B); HIV-1 strain BaL (clade B); HIV-1; HIV-1 strain 97ZA012 (clade C)) (UniProt P04578)", "test": "ELISA on Env from transfected 293 cells"}
{"substance": "monoclonal antibody 2F5", "values": [{"measurement": "fold higher reactivity than the parental clade B gp140ΔCFI", "value": "20 to 30", "unit": "fold"}]}
